Assay results from the Immune Epitope Database (IEDB).
Each block holds one sequence with its values, some of them ahead of it.

Assays:
HLA-A*24:02 [1] = experiment: IEDB peptide-MHC binding, purified MHC/competitive/fluorescence; filed as Kd, often an IC50 or EC50 that approximates it; ≥ and ≤ were set here for values at or beyond the usual limits of such assays
HLA-C*14:02 = experiment: IEDB peptide-MHC binding, purified MHC/direct/fluorescence; filed as Kd, often an IC50 or EC50 that approximates it; ≥ and ≤ were set here for values at or beyond the usual limits of such assays; conditions: source organism: Giardia lamblia ATCC 50803
HLA-C*15:02 = experiment: as above; conditions: source organism: Giardia lamblia ATCC 50803
HLA-C*06:02 = experiment: as above
HLA-A*02:01 [2] = experiment: IEDB peptide-MHC binding, purified MHC/competitive/fluorescence; filed as Kd, often an IC50 or EC50 that approximates it; ≥ and ≤ were set here for values at or beyond the usual limits of such assays; conditions: source organism: Vibrio cholerae MO10
HLA-A*03:01 = experiment: as above; conditions: source organism: Vibrio cholerae MO10
HLA-B*08:01 [3] = experiment: as above; conditions: source organism: Vibrio cholerae MO10
HLA-B*39:01 [4] = experiment: as above; conditions: source organism: Vibrio cholerae MO10
HLA-A*31:01 = experiment: as above; conditions: source organism: Vibrio cholerae MO10
HLA-A*02:03 = experiment: as above
HLA-B*15:17 [5] = experiment: as above; conditions: source organism: Vibrio cholerae MO10
HLA-B*15:09 = experiment: IEDB peptide-MHC binding, purified MHC/direct/fluorescence; filed as Kd, often an IC50 or EC50 that approximates it; ≥ and ≤ were set here for values at or beyond the usual limits of such assays; conditions: source organism: Vibrio cholerae V52
HLA-B*15:01 = experiment: as above
HLA-B*48:01 = experiment: as above
HLA-A*02:12 = experiment: as above; conditions: source organism: Vibrio cholerae V52
HLA-A*23:01 = experiment: as above; conditions: source organism: Vibrio cholerae V52
HLA-B*58:01 = experiment: as above
HLA-A*01:01 = experiment: as above
HLA-B*57:01 = experiment: as above
HLA-A*02:19 = experiment: as above; conditions: source organism: Vibrio cholerae V52
HLA-B*18:01 = experiment: as above
HLA-A*29:02 = experiment: as above; conditions: source organism: Vibrio cholerae V52
HLA-B*44:02 = experiment: as above; conditions: source organism: Vibrio cholerae V52
HLA-B*27:05 = experiment: as above
HLA-B*40:01 = experiment: as above
HLA-B*51:01 = experiment: as above; conditions: source organism: Vibrio cholerae V52
HLA-A*30:01 [6] = experiment: as above; conditions: source organism: Vibrio cholerae V52
HLA-A*11:01 = experiment: as above; conditions: source organism: Vibrio cholerae
HLA-B*46:01 = experiment: as above
HLA-A*69:01 = experiment: as above
HLA-A*24:03 = experiment: as above; conditions: source organism: Vibrio cholerae V52
HLA-B*38:01 = experiment: as above
HLA-C*04:01 [7] = experiment: as above
HLA-A*02:01 [8] = experiment: IEDB peptide-MHC binding, cellular MHC/competitive/fluorescence; ≥ and ≤ were set here for values at or beyond the usual limits of such assays; conditions: source organism: Homo sapiens
HLA-A*30:01 [9] = experiment: IEDB peptide-MHC binding, purified MHC/competitive/fluorescence; filed as Kd, often an IC50 or EC50 that approximates it; ≥ and ≤ were set here for values at or beyond the usual limits of such assays; conditions: source organism: Vaccinia virus WR
HLA-B*35:01 = experiment: as above; conditions: source organism: Vaccinia virus WR
HLA-A*02:01 [10] = experiment: IEDB peptide-MHC binding, purified MHC/direct/fluorescence; filed as Kd, often an IC50 or EC50 that approximates it; ≥ and ≤ were set here for values at or beyond the usual limits of such assays; conditions: source organism: Camelpox virus M-96
HLA-B*08:01 [11] = experiment: as above; conditions: source organism: Variola virus
HLA-B*39:01 [12] = experiment: as above; conditions: source organism: Camelpox virus M-96
HLA-B*08:02 = experiment: as above; conditions: source organism: Variola virus
HLA-A*68:02 = experiment: as above; conditions: source organism: Camelpox virus M-96
HLA-B*15:17 [13] = experiment: as above; conditions: source organism: Camelpox virus M-96
HLA-A*26:01 = experiment: as above; conditions: source organism: Variola virus
HLA-B*07:02 = experiment: as above; conditions: source organism: Camelpox virus M-96
HLA-A*24:02 [14] = experiment: as above; conditions: source organism: Giardia lamblia ATCC 50803
HLA-B*27:20 = experiment: IEDB peptide-MHC binding, purified MHC/competitive/fluorescence; filed as Kd, often an IC50 or EC50 that approximates it; ≥ and ≤ were set here for values at or beyond the usual limits of such assays; conditions: source organism: human gammaherpesvirus 4
HLA-B*45:06 = experiment: as above; conditions: source organism: human gammaherpesvirus 4
HLA-B*15:42 = experiment: as above; conditions: source organism: human gammaherpesvirus 4
HLA-C*04:01 [15] = experiment: as above; conditions: source organism: human gammaherpesvirus 4
[16] = source organism: Giardia lamblia ATCC 50803
[17] = source organism: Vibrio cholerae V52
[18] = source organism: Vibrio cholerae
[19] = source organism: Bacillus anthracis str. A0488
[20] = source organism: Camelpox virus M-96

Sequence: RYYLSFFHI
Kd (HLA-A*24:02 [1]; [16]): 0.0014 µM | Kd (HLA-C*14:02): 0.03 µM | Kd (HLA-C*15:02): ≥ 20 µM | Kd (HLA-C*06:02; [16]): ≥ 20 µM

Sequence: EVNAHIHTM
Kd (HLA-A*02:01 [2]): ≥ 20 µM | Kd (HLA-A*03:01): ≥ 20 µM | Kd (HLA-B*08:01 [3]): ≥ 20 µM | Kd (HLA-B*39:01 [4]): 1.33 µM | Kd (HLA-A*31:01): ≥ 20 µM | Kd (HLA-A*02:03; source organism: Vibrio cholerae MO10): ≥ 20 µM | Kd (HLA-B*15:17 [5]): ≥ 20 µM | Kd (HLA-B*15:09): ≥ 20 µM | Kd (HLA-B*15:01; [17]): ≥ 20 µM | Kd (HLA-B*48:01; [18]): ≥ 20 µM | Kd (HLA-A*02:12): ≥ 20 µM | Kd (HLA-A*23:01): ≥ 20 µM | Kd (HLA-B*58:01; [18]): ≥ 20 µM | Kd (HLA-A*01:01; [18]): ≥ 20 µM | Kd (HLA-B*57:01; [18]): ≥ 20 µM | Kd (HLA-A*02:19): ≥ 20 µM | Kd (HLA-B*18:01; [17]): 1.84 µM | Kd (HLA-A*29:02): ≥ 20 µM | Kd (HLA-B*44:02): ≥ 20 µM | Kd (HLA-B*27:05; [18]): ≥ 20 µM | Kd (HLA-B*40:01; [18]): ≥ 20 µM | Kd (HLA-B*51:01): ≥ 20 µM | Kd (HLA-A*30:01 [6]): ≥ 20 µM | Kd (HLA-A*11:01): ≥ 20 µM | Kd (HLA-B*46:01; [18]): ≥ 20 µM | Kd (HLA-A*69:01; [18]): ≤ 0.001 µM | Kd (HLA-A*24:03): ≥ 20 µM | Kd (HLA-B*38:01; [17]): ≥ 20 µM

Sequence: KYFIPVIEI
Kd (HLA-C*04:01 [7]; source organism: Homo sapiens): ≥ 20 µM

Sequence: IYPFHVQKI
Kd (HLA-A*24:02 [1]; [19]): ≤ 0.0001 µM | Kd (HLA-C*06:02; [19]): 0.816 µM

IC50 (HLA-A*02:01 [8]): ≥ 200 µM
Sequence: SPSVDKARAEL

Sequence: TESDAIRTL
Kd (HLA-A*02:03; source organism: Vaccinia virus WR): ≥ 20 µM | Kd (HLA-A*30:01 [9]): ≥ 20 µM | Kd (HLA-B*35:01): 3.71 µM | Kd (HLA-B*15:01; [20]): ≥ 20 µM | Kd (HLA-B*48:01; [20]): ≥ 20 µM | Kd (HLA-A*02:01 [10]): ≥ 20 µM | Kd (HLA-B*58:01; [20]): ≥ 20 µM | Kd (HLA-A*01:01; [20]): ≥ 20 µM | Kd (HLA-B*57:01; [20]): ≥ 20 µM | Kd (HLA-B*08:01 [11]): ≥ 20 µM | Kd (HLA-B*39:01 [12]): 0.118 µM | Kd (HLA-B*08:02): ≥ 20 µM | Kd (HLA-A*68:02): ≥ 20 µM | Kd (HLA-B*18:01; [20]): 0.017 µM | Kd (HLA-B*27:05; [20]): ≥ 20 µM | Kd (HLA-B*40:01; [20]): 0.0225 µM | Kd (HLA-B*15:17 [13]): ≥ 20 µM | Kd (HLA-A*26:01): ≥ 20 µM | Kd (HLA-B*46:01; [20]): ≥ 20 µM | Kd (HLA-B*07:02): ≥ 20 µM | Kd (HLA-A*69:01; [20]): ≥ 20 µM | Kd (HLA-B*38:01; source organism: Variola virus): 3.77 µM

Sequence: YWLNTPFLV
Kd (HLA-A*24:02 [14]): ≤ 0.001 µM | Kd (HLA-C*04:01 [7]; [16]): ≥ 20 µM

Sequence: RRYRRIYDL
Kd (HLA-B*27:20): ≤ 0.0001 µM | Kd (HLA-B*45:06): ≥ 5 µM | Kd (HLA-B*15:42): ≥ 5 µM | Kd (HLA-C*04:01 [15]): ≥ 5 µM | Kd (HLA-C*06:02; source organism: human gammaherpesvirus 4): 0.017 µM
